Source: PMC7311171 (2020)

B1: BBS7, in vitro translated, tagged with a 6xMyc epitope [not stated] / GST-SMO^H8 (GST fused to the first 19 amino acids of SMO^Ctail, aa 543–559) [mouse] (parent complex)
chain 1: MDLILNRMDYLQVGVTSQKTMKLIPASRHRATQKVVIGDHDGVVMCFGMKKGEAAAVFKTLPGPKIARLELGGVINTPQEKIFIAAASEIRGFTKRGKQFLSFETNLTESIKAMHISGSDLFLSASYIYNHYCDCKDQHYYLSGDKINDVICLPVERLSRITPVLACQDRVLRVLQGSDVMYAVEVPGPPTVLALHNGNGGDSGEDLLFGTSDGKLALIQITTSKPVRKWEIQNEKKRGGILCIDSFDIVGDGVKDLLVGRDDGMVEVYSFDNANEPVLRFDQMLSESVTSIQGGCVGKDSYDEIVVSTYSGWVTGLTTEPIHKESGPGEELKINQEMQNKISSLRNELEHLQYKVLQERENYQQSSQSSKAKSAVPSFGINDKFTLNKDDASYSLILEVQTAIDNVLIQSDVPIDLLDVDKNSAVVSFSSCDSESNDNFLLATYRCQADTTRLELKIRSIEGQYGTLQAYVTPRIQPKTCQVRQYHIKPLSLHQRTHFIDHDRPMNTLTLTGQFSFAEVHSWVVFCLPEVPEKPPAGECVTFYFQNTFLDTQLESTYRKGEGVFKSDNISTISILKDVLSKEATKRKINLNISYEINEVSVKHTLKLIHPKLEYQLLLAKKVQLIDALKELQIHEGNTNFLIPEYHCILEEADHLQEEYKKQPAHLERLYG
chain 2: KATLLIWRRTWCRLTGH

Variants of: B1
Assay: GST capture assay (pull-down) of in vitro translated Myc-BBS7, quantified from anti-Myc blot; parent: 4.4; read off a plot

Point of comparison: chain 2 W7A, chain 2 R8A, chain 2 W11A, chain 2 C12A, response ~0.12 ‰. Against it:
- chain 2 C12A — higher, ~4.9 ‰
- chain 2 R8A — higher, ~1.3 ‰
- chain 2 W7A, chain 2 W11A — higher, ~0.28 ‰
- chain 2 R8A, chain 2 C12A — higher, ~0.9 ‰
- chain 2 W11A — higher, ~3.6 ‰
- chain 2 W7A — higher, ~0.85 ‰
